# Data: the supplement of paper PMC10567573
# B1: PLK2 (parent)
# chain: MELLRTITYQPAASTKMCEQALGK
# Variants of: B1
# Test: protein stability index of a GFP-peptide fusion (GPS, HEK-293T) (PSI 1-6); higher = more stable
# Details: c terminus: a fixed tail appended
# 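Also: lentivirally expressed fusions sorted by FACS into six bins by GFP to DsRed ratio, PSI derived from sequencing read proportions per bin multiplied by bin number.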
row,Variant,protein stability index
1,MEWLRTITYQPAASTKMCEQALGK,2.48
2,MEVLRTITYQPAASTKMCEQALGK,2.49
3,METLRTITYQPAASTKMCEQALGK,1.94
4,MENLRTITYQPAASTKMCEQALGK,1.88
5,MEILRTITYQPAASTKMCEQALGK,2.63
6,MEALRTITYQPAASTKMCEQALGK,2.82
7,MECLRTITYQPAASTKMCEQALGK,2.17
8,MESLRTITYQPAASTKMCEQALGK,2.21
9,MTLLRTITYQPAASTKMCEQALGK,2.28
10,MMLLRTITYQPAASTKMCEQALGK,2.09
11,MNLLRTITYQPAASTKMCEQALGK,2.61
12,MVLLRTITYQPAASTKMCEQALGK,2.13
13,MALLRTITYQPAASTKMCEQALGK,1.79
14,MQLLRTITYQPAASTKMCEQALGK,1.91
15,MILLRTITYQPAASTKMCEQALGK,1.51
16,MSLLRTITYQPAASTKMCEQALGK,2.38
17,MRLLRTITYQPAASTKMCEQALGK,2.15
18,MKLLRTITYQPAASTKMCEQALGK,2.7
19,MELLGTITYQPAASTKMCEQALGK,3.02
20,MELLNTITYQPAASTKMCEQALGK,3.79
21,MELLMTITYQPAASTKMCEQALGK,2.36
22,MELLWTITYQPAASTKMCEQALGK,2.88
23,MELLKTITYQPAASTKMCEQALGK,3.52
24,MELLTTITYQPAASTKMCEQALGK,2.47

row,Variant,protein stability index
1,MELLETITYQPAASTKMCEQALGK,3.55
2,MELLHTITYQPAASTKMCEQALGK,3.02
3,MELLRTCTYQPAASTKMCEQALGK,2.1
4,MELLRTYTYQPAASTKMCEQALGK,2.6
5,MELLRTGTYQPAASTKMCEQALGK,3.72
6,MELLRTNTYQPAASTKMCEQALGK,3.19
7,MELLRTSTYQPAASTKMCEQALGK,2.54
8,MELLRTVTYQPAASTKMCEQALGK,1.97
9,MELLRTRTYQPAASTKMCEQALGK,3.09
10,MELLRTETYQPAASTKMCEQALGK,2.89
11,MELLRTLTYQPAASTKMCEQALGK,2.03
12,DELLRTITYQPAASTKMCEQALGK,3.64
13,FELLRTITYQPAASTKMCEQALGK,2.04
14,SELLRTITYQPAASTKMCEQALGK,2.17
15,PELLRTITYQPAASTKMCEQALGK,4.09
16,IELLRTITYQPAASTKMCEQALGK,2.03
17,EELLRTITYQPAASTKMCEQALGK,4.07
18,TELLRTITYQPAASTKMCEQALGK,3.74
19,AELLRTITYQPAASTKMCEQALGK,2.18
20,VELLRTITYQPAASTKMCEQALGK,2.23
21,HELLRTITYQPAASTKMCEQALGK,3.67
22,MELLRTITYQEAASTKMCEQALGK,1.91
23,MELLRTITYQYAASTKMCEQALGK,2.69
24,MELLRTITYQLAASTKMCEQALGK,4.39

row,Variant,protein stability index
1,MELLRTITYQPAASTKRCEQALGK,2.68
2,MELLRTITYQPAASTKSCEQALGK,2.33
3,MELLRTITYQPAASTKECEQALGK,1.86
4,MELLRTITYQPAASTKICEQALGK,2.18
5,MELLRTITYQPAASTKPCEQALGK,2.04
6,MELLRTITYQPAASTKYCEQALGK,1.8
7,MELLRTITYQPAASTKACEQALGK,2.37
8,MELLRTITYQPAASTKDCEQALGK,2.02
9,MELLRTITYQPAASTKHCEQALGK,2.26
10,MELLRTITYQPAASTKKCEQALGK,2.98
11,MELLRTITYQPAASTKMCEQPLGK,2.28
12,MELLRTITYQPAASTKMCEQVLGK,2.5
13,MELLRTITYQPAASTKMCEQMLGK,2.21
14,MELLRTITYQPAASTKMCEQDLGK,2.17
15,MELLRTITYQPAASTKMCEQFLGK,1.94
16,MELLRTITYQPAASTKMCEQYLGK,2.16
17,MELLRTITYQPAASTKMCEQKLGK,1.51
18,MELLRTITYQPAASTKMCEQLLGK,2.7
19,MELLRTITYQPAASTKMCEQWLGK,3.26
20,MELLRTITYQPAASTKMCEQTLGK,2.79
21,MELLRTITIQPAASTKMCEQALGK,2.34
22,MELLRTITLQPAASTKMCEQALGK,1.73
23,MELLRTITSQPAASTKMCEQALGK,3.53
24,MELLRTITRQPAASTKMCEQALGK,2.19

row,Variant,protein stability index
1,MELLRTITWQPAASTKMCEQALGK,1.45
2,MELLRTITEQPAASTKMCEQALGK,2.05
3,MELLRTITHQPAASTKMCEQALGK,2.1
4,MELLRTITDQPAASTKMCEQALGK,2
5,MELLRTITYQPAASTKMCEMALGK,3.03
6,MELLRTITYQPAASTKMCERALGK,2.71
7,MELLRTITYQPAASTKMCECALGK,3.11
8,MELLRTITYQPAASTKMCEFALGK,2.08
9,MELLRTITYQPAASTKMCELALGK,2.38
10,MELLRTITYQPAASTKMCEIALGK,2.18
11,MELLRTITYQPAASTKMCESALGK,1.75
12,MELLRTITYQPAASTKMCEDALGK,1.95
13,MELLRTITYQPAASTKMCETALGK,3.59
14,MELLRTITYQPAAKTKMCEQALGK,2.24
15,MELLRTITYQPAAGTKMCEQALGK,1.9
16,MELLRTITYQPAAFTKMCEQALGK,2.49
17,MELLRTITYQPAANTKMCEQALGK,3.48
18,MELLRTITYQPAAYTKMCEQALGK,3.88
19,MELLRTITYQPAATTKMCEQALGK,2.5
20,MELLRTITYQPAACTKMCEQALGK,2.5
21,MELLRTITYQPAAITKMCEQALGK,1.61
22,MELLRTITYQPAADTKMCEQALGK,1.68
23,MELLRTITYQPAASTKMCEQAQGK,2.02
24,MELLRTITYQPAASTKMCEQAKGK,1.66

row,Variant,protein stability index
1,MELLRTITYQPAASTKMCEQAIGK,2.42
2,MELLRTITYQPAASTKMCEQAVGK,2.82
3,MELLRTITYQPAASTKMCEQAHGK,3.36
4,MELLRTITYQPWASTKMCEQALGK,1.79
5,MELLRTITYQPIASTKMCEQALGK,2.35
6,MELLRTITYQPGASTKMCEQALGK,2.32
7,MELLRTITYQPFASTKMCEQALGK,2.97
8,MELLRTITYQPYASTKMCEQALGK,2.21
9,MELLRTITYQPSASTKMCEQALGK,1.56
10,MELLRTITYQPCASTKMCEQALGK,2.82
11,MELLRTITYQPLASTKMCEQALGK,2.57
12,MELLRTITYQPDASTKMCEQALGK,1.82
13,MELLRTITYQPAASQKMCEQALGK,2.87
14,MELLRTITYQPAASAKMCEQALGK,2.17
15,MELLRTITYQPAASNKMCEQALGK,2.46
16,MELLRTITYQPAASHKMCEQALGK,3.23
17,MELLRTITYQPAASPKMCEQALGK,1.58
18,MELLRTITYQPAASKKMCEQALGK,1.68
19,MELLRTITYQPAASRKMCEQALGK,1.44
20,MELLRTITYQPAASCKMCEQALGK,2.07
21,MELARTITYQPAASTKMCEQALGK,2.55
22,MELKRTITYQPAASTKMCEQALGK,4.05
23,MELIRTITYQPAASTKMCEQALGK,2.92
24,MELMRTITYQPAASTKMCEQALGK,1.61

row,Variant,protein stability index
1,MELVRTITYQPAASTKMCEQALGK,2.77
2,MELLRKITYQPAASTKMCEQALGK,2.19
3,MELLRWITYQPAASTKMCEQALGK,1.99
4,MELLRAITYQPAASTKMCEQALGK,1.93
5,MELLREITYQPAASTKMCEQALGK,3.17
6,MELLRGITYQPAASTKMCEQALGK,3.05
7,MELLRPITYQPAASTKMCEQALGK,4.1
8,MELLRIITYQPAASTKMCEQALGK,2.65
9,MELLRQITYQPAASTKMCEQALGK,1.93
10,MELLRHITYQPAASTKMCEQALGK,2.2
11,MELLRLITYQPAASTKMCEQALGK,1.69
12,MELLRTITYQPAASTKMCYQALGK,2.82
13,MELLRTITYQPAASTKMCAQALGK,2.59
14,MELLRTITYQPAASTKMCVQALGK,2.46
15,MELLRTITYQPAASTKMCSQALGK,1.38
16,MELLRTITYQPAASTKMCHQALGK,2.09
17,MELLRTITYQPAASTKMCLQALGK,2.52
18,MELLRTITYQPAASTKMCTQALGK,2.84
19,MELLRTITYQPAASTKMCPQALGK,3.73
20,MELLRTITYQPAASTKMCEQALQK,1.87
21,MELLRTITYQPAASTKMCEQALDK,1.93
22,MELLRTITYQPAASTKMCEQALIK,1.97
23,MELLRTITYQPAASTKMCEQALFK,2.36
24,MELLRTITYQPAASTKMCEQALMK,2.28

row,Variant,protein stability index
1,MELLRTITYQPAASTFMCEQALGK,1.83
2,MELLRTITYQPAASTYMCEQALGK,3.02
3,MELLRTITYQPAASTWMCEQALGK,2.05
4,MELLRTITYQPAASTSMCEQALGK,2.34
5,MELLRTITYQPAASTTMCEQALGK,2.55
6,MELLRTITYQPAASTNMCEQALGK,2.01
7,MELLRTITYQPAASTGMCEQALGK,1.81
8,MELLRTITYQPAASTKMPEQALGK,3.07
9,MELLRTITYQPAASTKMREQALGK,2.85
10,MELLRTITYQPAASTKMSEQALGK,2.81
11,MELLRTITYQPAASTKMLEQALGK,2.71
12,MELLRTITYQPAASTKMHEQALGK,2.34
13,MELLRTITYQPAASTKMMEQALGK,2.67
14,MELLRTITYQPAASTKMYEQALGK,1.01
15,MELLRTITYQPAASTKMVEQALGK,2.26
16,MELLRTITYQPAASTKMFEQALGK,2.19
17,MELLRTITYQPAASTKMIEQALGK,2.49
18,MELLRTITYQPAASTKMEEQALGK,1.96
19,MELLRTIYYQPAASTKMCEQALGK,2.93
20,MELLRTIIYQPAASTKMCEQALGK,3.71
21,MELLRTIAYQPAASTKMCEQALGK,2.94
22,MELLRTICYQPAASTKMCEQALGK,2.32
23,MELLRTIGYQPAASTKMCEQALGK,2.44
24,MELLRTISYQPAASTKMCEQALGK,2.21

row,Variant,protein stability index
1,MELLRTIHYQPAASTKMCEQALGK,2.03
2,MELLRTIFYQPAASTKMCEQALGK,2.17
3,MELLRTITYQPAHSTKMCEQALGK,2.36
4,MELLRTITYQPASSTKMCEQALGK,3.29
5,MELLRTITYQPACSTKMCEQALGK,3.34
6,MELLRTITYQPAFSTKMCEQALGK,2.33
7,MELLRTITYQPADSTKMCEQALGK,2.51
8,MELLRTITYQPAQSTKMCEQALGK,3.13
9,MELLRTITYQPAASTKMCEQALGN,2.59
10,MELLRTITYQPAASTKMCEQALGY,3.96
11,MELLRTITYQPAASTKMCEQALGF,3.31
12,MELLRTITYQPAASTKMCEQALGL,3.19
13,MELLRTITYQPAASTKMCEQALGA,2.89
14,MELLRTITYQPAASTKMCEQALGR,1.98
15,MELLRTITYRPAASTKMCEQALGK,2.97
16,MELLRTITYNPAASTKMCEQALGK,3.54
17,MELLRTITYYPAASTKMCEQALGK,3.24
18,MELLRTITYTPAASTKMCEQALGK,2.12
19,MELLRTITYSPAASTKMCEQALGK,2.54
20,MELLRTITYWPAASTKMCEQALGK,2.6
